Reference: patent US20100196385A1

Legend:
[1] = biological target: DLL4 extracellular domain (R&D systems, catalog #1506-D4/CF) (UniProt Q9NR61); experiment: cell-based or functional assay
human Dll1 (human) [2] = biological target: human Dll1 (human) (UniProt O00548); experiment: FACS, 0.2 µg/ml, 293T cells with human Dll1
human Dll1 (human) [3] = biological target: human Dll1 (human) (UniProt O00548); experiment: FACS, 1 µg/ml, 293T cells with human Dll1 vs mock
human Dll1 (human) [4] = biological target: human Dll1 (human) (UniProt O00548); experiment: FACS, 0.2 µg/ml, 293T cells with human Dll1 vs mock
human Dll1 (human) [5] = biological target: human Dll1 (human) (UniProt O00548); experiment: FACS, 5 µg/ml, 293T cells with human Dll1
human Dll1 (human) [6] = biological target: human Dll1 (human) (UniProt O00548); experiment: FACS, 5 µg/ml, 293T cells with human Dll1 vs mock
human Dll1 (human) [7] = biological target: human Dll1 (human) (UniProt O00548); experiment: FACS, 1 µg/ml, 293T cells with human Dll1
human Jagged1 (human) [8] = biological target: human Jagged1 (human) (UniProt P78504); experiment: FACS, 1 µg/ml, 293T cells with human Jagged1
human Jagged1 (human) [9] = biological target: human Jagged1 (human) (UniProt P78504); experiment: FACS, 5 µg/ml, 293T cells with human Jagged1 vs mock
human Jagged1 (human) [10] = biological target: human Jagged1 (human) (UniProt P78504); experiment: FACS, 5 µg/ml, 293T cells with human Jagged1
human Jagged1 (human) [11] = biological target: human Jagged1 (human) (UniProt P78504); experiment: FACS, 0.2 µg/ml, 293T cells with human Jagged1 vs mock
human Jagged1 (human) [12] = biological target: human Jagged1 (human) (UniProt P78504); experiment: FACS, 0.2 µg/ml, 293T cells with human Jagged1
human Jagged1 (human) [13] = biological target: human Jagged1 (human) (UniProt P78504); experiment: FACS, 1 µg/ml, 293T cells with human Jagged1 vs mock

Sequence of DLL4 extracellular domain (R&D systems, catalog #1506-D4/CF) (Q9NR61 27-529 limits assumed): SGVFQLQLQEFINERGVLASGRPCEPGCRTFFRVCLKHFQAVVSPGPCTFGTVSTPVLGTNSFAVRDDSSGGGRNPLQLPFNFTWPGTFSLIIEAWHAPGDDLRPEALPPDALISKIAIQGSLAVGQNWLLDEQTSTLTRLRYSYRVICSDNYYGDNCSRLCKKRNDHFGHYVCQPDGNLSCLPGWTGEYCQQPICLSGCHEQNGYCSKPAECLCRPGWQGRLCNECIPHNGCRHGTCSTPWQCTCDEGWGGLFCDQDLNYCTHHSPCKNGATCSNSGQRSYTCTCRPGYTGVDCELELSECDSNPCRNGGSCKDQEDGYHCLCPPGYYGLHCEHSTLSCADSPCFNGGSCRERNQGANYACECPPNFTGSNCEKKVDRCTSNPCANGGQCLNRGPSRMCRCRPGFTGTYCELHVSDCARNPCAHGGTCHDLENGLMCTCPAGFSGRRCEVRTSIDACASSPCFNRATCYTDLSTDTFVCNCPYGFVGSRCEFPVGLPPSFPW
Sequence of human Dll1 (human) (O00548 18-723): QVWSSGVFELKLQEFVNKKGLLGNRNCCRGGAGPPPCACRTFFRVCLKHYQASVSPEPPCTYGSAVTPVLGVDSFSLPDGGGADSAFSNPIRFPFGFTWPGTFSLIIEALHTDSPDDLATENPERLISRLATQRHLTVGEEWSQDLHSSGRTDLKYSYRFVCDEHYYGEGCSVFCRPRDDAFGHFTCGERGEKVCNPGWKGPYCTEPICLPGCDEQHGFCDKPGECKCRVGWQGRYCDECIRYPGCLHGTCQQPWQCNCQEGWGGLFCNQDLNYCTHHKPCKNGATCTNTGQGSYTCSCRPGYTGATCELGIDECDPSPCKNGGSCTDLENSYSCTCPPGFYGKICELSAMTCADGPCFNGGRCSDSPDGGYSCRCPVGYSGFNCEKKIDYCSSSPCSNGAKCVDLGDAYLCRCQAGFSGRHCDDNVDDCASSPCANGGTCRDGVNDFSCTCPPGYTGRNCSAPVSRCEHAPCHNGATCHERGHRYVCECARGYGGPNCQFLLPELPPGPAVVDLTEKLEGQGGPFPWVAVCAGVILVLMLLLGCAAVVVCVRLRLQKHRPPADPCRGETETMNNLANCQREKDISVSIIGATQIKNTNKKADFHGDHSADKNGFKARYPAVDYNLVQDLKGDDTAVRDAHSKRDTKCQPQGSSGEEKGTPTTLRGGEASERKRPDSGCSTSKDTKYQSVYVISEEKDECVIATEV
Sequence of human Jagged1 (human) (P78504 34-1218): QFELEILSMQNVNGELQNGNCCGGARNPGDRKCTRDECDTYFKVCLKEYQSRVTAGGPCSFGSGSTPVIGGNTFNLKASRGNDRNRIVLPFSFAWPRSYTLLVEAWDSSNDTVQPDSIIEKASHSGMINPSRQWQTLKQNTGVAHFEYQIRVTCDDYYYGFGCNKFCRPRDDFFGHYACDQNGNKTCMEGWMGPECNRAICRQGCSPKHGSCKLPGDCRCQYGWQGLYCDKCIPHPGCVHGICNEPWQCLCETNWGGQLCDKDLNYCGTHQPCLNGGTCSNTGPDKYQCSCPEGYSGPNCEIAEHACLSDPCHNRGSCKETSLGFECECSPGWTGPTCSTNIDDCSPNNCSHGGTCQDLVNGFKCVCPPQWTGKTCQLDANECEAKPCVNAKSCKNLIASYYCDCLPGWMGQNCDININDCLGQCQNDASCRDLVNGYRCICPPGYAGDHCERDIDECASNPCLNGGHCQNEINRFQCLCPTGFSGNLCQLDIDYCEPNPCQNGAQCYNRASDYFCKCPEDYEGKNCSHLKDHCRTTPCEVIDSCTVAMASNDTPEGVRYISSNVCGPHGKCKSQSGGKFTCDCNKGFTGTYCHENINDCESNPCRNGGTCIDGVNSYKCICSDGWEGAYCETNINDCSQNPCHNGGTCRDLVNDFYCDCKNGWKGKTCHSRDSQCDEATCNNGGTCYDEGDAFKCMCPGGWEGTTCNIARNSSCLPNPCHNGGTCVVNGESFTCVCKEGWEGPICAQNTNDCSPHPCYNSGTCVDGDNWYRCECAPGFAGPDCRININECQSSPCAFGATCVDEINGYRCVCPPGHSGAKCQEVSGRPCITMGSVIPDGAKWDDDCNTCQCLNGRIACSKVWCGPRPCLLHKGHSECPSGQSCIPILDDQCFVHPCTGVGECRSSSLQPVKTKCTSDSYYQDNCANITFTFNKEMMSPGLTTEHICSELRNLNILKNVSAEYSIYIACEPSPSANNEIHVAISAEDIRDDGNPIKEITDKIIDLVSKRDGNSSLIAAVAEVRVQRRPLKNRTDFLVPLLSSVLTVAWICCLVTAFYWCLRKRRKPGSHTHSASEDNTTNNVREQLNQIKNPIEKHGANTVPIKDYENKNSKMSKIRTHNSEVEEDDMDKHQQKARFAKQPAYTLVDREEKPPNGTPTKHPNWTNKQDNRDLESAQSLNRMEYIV

Row | % inhibition 1 µg/ml, AVERAGE (HUVEC proliferation on coated DLL4) [1] [%] | % inhibition 1 µg/ml, N = 1 (HUVEC proliferation on coated DLL4) [1] [%] | % inhibition 1 µg/ml, N = 2 (HUVEC proliferation on coated DLL4) [1] [%] | % inhibition 10 µg/ml, AVERAGE (HUVEC proliferation on coated DLL4) [1] [%] | % inhibition 10 µg/ml, N = 1 (HUVEC proliferation on coated DLL4) [1] [%] | % inhibition 10 µg/ml, N = 2 (HUVEC proliferation on coated DLL4) [1] [%] | Substance | other results
1 | 9 | 18 | 0 | 10 | 11 | 9 | Control IgG2 (antibody) | 
2 | 11 | 14 | 8 | 2 | 6 | -3 | Control IgG4 (antibody) | 
3 |  |  |  |  |  |  | Goat anti-human Dll1 antibody (R&D systems cat #AF1818) | Dll1/293T X Geo mean (human Dll1 (human) [2]): 565; Dll1/mock ratio (human Dll1 (human) [3]): 6.33; Dll1/mock ratio (human Dll1 (human) [4]): 6.94; Dll1/293T X Geo mean (human Dll1 (human) [5]): 1840; Dll1/mock ratio (human Dll1 (human) [6]): 7.68; Dll1/293T X Geo mean (human Dll1 (human) [7]): 1240
4 |  |  |  |  |  |  | Mouse anti-human Jagged 1 antibody (R&D systems, catalog #mAB1277) | Jagged1/293T X Geo mean (human Jagged1 (human) [8]): 119; Jagged1/mock ratio (human Jagged1 (human) [9]): 4.29; Jagged1/293T X Geo mean (human Jagged1 (human) [10]): 196; Jagged1/mock ratio (human Jagged1 (human) [11]): 3.38; Jagged1/293T X Geo mean (human Jagged1 (human) [12]): 50.7; Jagged1/mock ratio (human Jagged1 (human) [13]): 3.94
